Our source for the Kd values is the Immune Epitope Database (IEDB).

One assay concerns the target HLA-B*83:01. The assay can be described thus: IEDB peptide-MHC binding, purified MHC/competitive/fluorescence; filed as Kd, often an IC50 or EC50 that approximates it; ≥ and ≤ were set here for values at or beyond the usual limits of such assays. The conditions noted are these: source organism: Kurkino virus.
The target in a further assay is HLA-B*27:20. The description is as above. The conditions noted are these: source organism: Kurkino virus.
Another assay concerns the target HLA-A*03:19. The description is as above. The conditions noted are these: source organism: Kurkino virus.
For a further assay, the target named is HLA-B*15:42. Described as above. The following applies: source organism: Kurkino virus.
The next assay addresses HLA-B*40:13. The assay is described as above. The following applies: source organism: Kurkino virus.
A further assay has as its target HLA-A*32:15. The assay is described as above. The conditions noted are these: source organism: Kurkino virus.
The next assay concerns the target HLA-A*32:07. The description is as above. The following applies: source organism: Kurkino virus.
A further assay addresses HLA-B*45:06. The description is as above. The following applies: source organism: Kurkino virus.
Assay [1] has as its target HLA-A*02:01. Briefly: IEDB peptide-MHC binding, purified MHC/direct/fluorescence; filed as Kd, often an IC50 or EC50 that approximates it; ≥ and ≤ were set here for values at or beyond the usual limits of such assays. The following applies: source organism: Orthohantavirus dobravaense.
The target in a further assay is HLA-A*69:01. Described as above.
Another assay deals with HLA-A*02:19. The description is as above. The following applies: source organism: Kurkino virus.
Another assay concerns the target HLA-A*02:12. The assay is described as above. The following applies: source organism: Kurkino virus.
The next assay addresses HLA-A*02:11. Described as above. The conditions noted are these: source organism: Kurkino virus.
Another assay deals with HLA-A*32:01. Briefly: IEDB peptide-MHC binding, purified MHC/competitive/radioactivity; filed as Kd, often an IC50 or EC50 that approximates it; ≥ and ≤ were set here for values at or beyond the usual limits of such assays. The conditions noted are these: source organism: Vaccinia virus WR.
The target of a further assay is HLA-B*15:03. The description is as above. The following applies: source organism: Vaccinia virus WR.
Another assay addresses HLA-A*68:02. Briefly: IEDB peptide-MHC binding, purified MHC/competitive/fluorescence; filed as Kd, often an IC50 or EC50 that approximates it; ≥ and ≤ were set here for values at or beyond the usual limits of such assays. The following applies: source organism: Vaccinia virus Tian Tan.
Assay [2] concerns the target HLA-A*02:01. The assay is described as above. The following applies: source organism: Vaccinia virus Tian Tan.
The target of another assay is HLA-B*15:17. The description is as above. The following applies: source organism: Vaccinia virus Tian Tan.
In the next assay the target is HLA-B*39:01. The assay is described as above. The following applies: source organism: Vaccinia virus Tian Tan.
For a further assay, the target named is HLA-B*15:09. The description is as above. The following applies: source organism: Vaccinia virus Tian Tan.
The target of another assay is HLA-B*35:01. The description is as above. The conditions noted are these: source organism: Vaccinia virus Tian Tan.
In the next assay the target is HLA-A*11:01. The assay is described as above. The following applies: source organism: Vaccinia virus Tian Tan.
Another assay has as its target HLA-A*26:02. The description is as above. The conditions noted are these: source organism: Vaccinia virus Tian Tan.
Another assay concerns the target HLA-B*46:01. The assay can be described thus: IEDB peptide-MHC binding, purified MHC/direct/fluorescence; filed as Kd, often an IC50 or EC50 that approximates it; ≥ and ≤ were set here for values at or beyond the usual limits of such assays. The following applies: source organism: Camelpox virus CMS.
The next assay addresses HLA-B*57:01. Described as above. The conditions noted are these: source organism: Camelpox virus CMS.
A further assay addresses HLA-B*15:01. Described as above. The following applies: source organism: Camelpox virus CMS.
For a further assay, the target named is HLA-A*01:01. The assay is described as above. The following applies: source organism: Camelpox virus CMS.
In the next assay the target is HLA-B*07:02. The description is as above. The conditions noted are these: source organism: Camelpox virus CMS.
The target of another assay is HLA-A*26:01. The assay is described as above. The following applies: source organism: Variola virus.
Another assay deals with HLA-A*31:01. The assay is described as above. The following applies: source organism: Camelpox virus CMS.
The target of the next assay is HLA-B*48:01. The assay is described as above. The following applies: source organism: Camelpox virus CMS.
The next assay has as its target HLA-B*27:05. The assay is described as above. The following applies: source organism: Camelpox virus CMS.
The next assay deals with HLA-B*58:01. The description is as above. The conditions noted are these: source organism: Camelpox virus CMS.

For SLYSGFPSL, the dissociation constant Kd in the assay with HLA-B*83:01 was no less than 5000 nM; with HLA-B*27:20, 26.5 nM; with HLA-A*03:19 it was 26.1 nM; with HLA-B*15:42, no less than 5000 nM; with HLA-B*40:13, 160 nM; in the assay with HLA-A*32:15 it was 30.5 nM. Besides, the equilibrium dissociation constant (Kd) in the assay with HLA-A*32:07 is 2.5 nM; with HLA-B*45:06, no less than 5000 nM; with HLA-A*02:01 [1], no more than 1 nM; with HLA-A*69:01 (source organism: Orthohantavirus dobravaense), no more than 1 nM; with HLA-A*02:19, 42 nM; with HLA-A*02:12, no more than 1 nM. The sequence further gave a Kd with HLA-A*02:11 of no more than 1 nM.

For the sequence WQFAIHYSF, the Kd with HLA-A*32:01 was 2.75 nM; with HLA-B*15:03, 4.47 nM; in the assay with HLA-A*68:02, no less than 20000 nM; in the assay with HLA-A*02:01 [2] it was no less than 20000 nM; with HLA-B*15:17, 4670 nM; with HLA-B*39:01, 604 nM. The Kd in the assay with HLA-B*15:09 is no less than 20000 nM; with HLA-B*35:01 it was 922 nM; with HLA-A*11:01, no less than 20000 nM; in the assay with HLA-A*26:02, 833 nM; with HLA-B*46:01, no less than 20000 nM; in the assay with HLA-A*69:01 (source organism: Camelpox virus CMS), no less than 20000 nM. The Kd was no less than 20000 nM in the assay with HLA-B*57:01; 130 nM in the assay with HLA-B*15:01; no less than 20000 nM with HLA-A*01:01; no less than 20000 nM in the assay with HLA-B*07:02; no less than 20000 nM with HLA-A*26:01; no less than 20000 nM with HLA-A*31:01. In addition, the Kd was 160 nM with HLA-B*48:01, 277 nM with HLA-B*27:05 and no less than 20000 nM with HLA-B*58:01.
